US20060104980A1

Experiments:
[1] = biological target: HCV 1b E2 deletion construct pDN-411 (influenza virus; Hepatitis C virus genotype 1b); test: GNA capture ELISA, HEK-293 extracts
[2] = biological target: HCV 1b E2 deletion construct pDN-411 (influenza virus; Hepatitis C virus genotype 1b); test: flow cytometry, transiently transfected HEK-293 cells, 10 ug/ml

Row | Substance | OD [1] | mean fluorescence [2]
1 | HMAb CBH-2 (antibody) | 0.1 to 0.5 od | 
2 | HMAb CBH-5 (antibody) | > 0.5 od | 17
3 | HMAb CBH-7 (antibody) | > 0.5 od | 19
4 | HMAb CBH-4B (antibody) | > 0.5 od | 17
5 | HMAb CBH-8E (antibody) | 0.1 to 0.5 od | 
6 | HMAb CBH-8C (antibody) | > 0.5 od | 
7 | HMAb CBH-17 (antibody) | 0.1 to 0.5 od | 
